# Measured values reported in paper PMC4429112, “Characterization of a Highly pH Stable Chi-Class Glutathione S-Transferase from Synechocystis PCC 6803” (PLoS ONE, 2015).
# B1: Glutathione S-transferase sll0067 from Synechocystis PCC 6803 (enzyme, UniProt Q55139 1-184, looked up)
# chain: MIKLYGAPQSRASIIQWYLEELSLPYEFVNVNLKEGEHRQAPYLAINPFGKVPAIADGNFHLWESGAILLYLAEKASTIPADAQARALVNQWILFANSTLANGLFIEAVREKEMPRLLQSLEKILGRSPFILGEKFSVVDVAVGSILAYVPIMLKLNFDDYPAVAAYVQGLVQRPAFQASIGAR
# notes: gene of 0.55 kb amplified from genomic DNA with primers from the ATG to the stop codon; subunit of about 20 kDa; Cloned at BamHI and HindIII sites of pQE30 and purified on Ni-NTA; also called GST sll0067; recombinant sll0067; source: E. coli M15, purified (Ni-NTA agarose)
# Legend:
# purified protein = substrate: S=C=NCCc1ccccc1; assay: purified protein; assay type: biochemical, Synechocystis sp. PCC 6803; set-up: Vmax: unit not given here; conditions: co-substrate 1 mM GSH, 50 mM potassium phosphate pH 6.5, 150 mM NaCl, 30 °C
# [1] = target: the molecule itself; assay: SEC; Superdex 200 10/300 GL, 20 mM phosphate buffer pH 8.0, 150 mM NaCl, 2 mM GSH, 0.5 mL/min, 25°C; calibrated with molecular weight standards
protein,measurement,setting,value
B1,Km,purified protein,319.3 ± 33 µM
same,Vmax,purified protein,21.8
same,kcat,purified protein,15.2 ± 0.58 s⁻¹
same,kcat/Km,purified protein,47500 ± 620 M⁻¹ s⁻¹
same,stoichiometry N,[1],2
